This is an account of results in US12329823B2 (The Scripps Research Institute, priority 2021, dated 2025).

The target of one data set is human GLP-1R (Homo sapiens, UniProt P43220). Put plainly: In vitro receptor activation reporter assay (CRE-Luc, HEK293-GLP-1R-CRE cells; receptor-mediated cAMP synthesis). It is filed as cell-based. Details: expressed in transfected cells; host or cells: HEK293 (CRE-HEK293, HEK293-GLP-1R-CRE).
The nature of data set [1]: Acute oral glucose tolerance test (OGTT) in wild-type mice, 2 h and 96 h post injection. It is filed as in vivo, mouse. To be noted: 96 h after administration; 10 nmol/kg s.c.
A short description of data set [2]: Pharmacokinetics in CD-1 mouse, I.V. or S.C. 1 mg/kg, plasma concentration by LC-MS.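 Also: peptide levels in plasma quantified by LC-MS across multiple sampling times.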
Protocol: The peptide plasma concentration at various time points was determined using LC-MS.
The next data set addresses T1, human GIPR (Homo sapiens, UniProt P48546).
T1 construct: expressed in transfected cells; host or cells: HEK293 (CRE-HEK293, HEK293-GIPR-CRE)
T1 sequence (P48546 22-466): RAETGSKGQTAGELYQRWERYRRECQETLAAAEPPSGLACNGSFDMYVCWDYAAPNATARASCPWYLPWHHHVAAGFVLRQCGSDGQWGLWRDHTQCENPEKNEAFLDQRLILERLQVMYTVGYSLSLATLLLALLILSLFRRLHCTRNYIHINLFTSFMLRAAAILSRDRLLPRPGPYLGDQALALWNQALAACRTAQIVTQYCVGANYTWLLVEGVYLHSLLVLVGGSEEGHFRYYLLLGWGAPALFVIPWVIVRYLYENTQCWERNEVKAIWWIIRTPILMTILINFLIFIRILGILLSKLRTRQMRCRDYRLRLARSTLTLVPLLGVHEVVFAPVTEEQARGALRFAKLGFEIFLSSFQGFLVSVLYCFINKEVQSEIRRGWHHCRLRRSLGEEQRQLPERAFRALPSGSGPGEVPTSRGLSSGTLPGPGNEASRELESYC
In words: In vitro receptor activation reporter assay (CRE-Luc, HEK293-GIPR-CRE cells; receptor-mediated cAMP synthesis). It is filed as cell-based. For orientation: A reporter such as luciferase makes a cellular process visible.

Data set [3] is described as follows: In vivo oral glucose tolerance test (OGTT) 12 h after a single S.C. dose. Details: species or system mouse. To be noted: 10 nmol/kg S.C.; 12 h before glucose. The procedure: Mice were fasted overnight prior to the oral glucose tolerance test (OGTT), and then dosed with peptide. After 12 h, 1 g of glucose solution per kg body weight was administered orally, and mouse tail blood glucose levels were measured before (0 min) and after glucose challenge for 90 minutes (with measurements at 15, 30, 60 and 90 minutes) (FIG. 16). The data were compared using the unpaired Student's t test. Where appropriate, data were compared using repeated measures or one-way analysis of variance, followed by the Student-Newman-Keuls post hoc test. Calculations for […] (mg/dL*min) were also analyzed and graphed in FIG. 16. […]. […].

Read-outs that look alike come from different tables or passages of the source.

Broadly, the EC50 is the concentration needed to bring the measured effect to its halfway point. As a reminder, the bioavailability is dose-corrected exposure relative to a reference, in per cent. What is called AUC(0-inf) is the area under the concentration-time curve extrapolated to infinity. For orientation: Cmax means the maximum level reached in the sampled fluid or tissue. A word on the MRT last: it is the average time that molecules of a dose stay in the body. The Tmax is the time at which the peak concentration occurs. In general, half-life refers to the time needed for the level to fall by half in the phase considered. A lower half-life goes with rapid decline. Usually AUC(0-t) stands for exposure summed from dosing to a finite time, without extrapolation to infinity.

human GLP-1R, sequence (P43220 24-463): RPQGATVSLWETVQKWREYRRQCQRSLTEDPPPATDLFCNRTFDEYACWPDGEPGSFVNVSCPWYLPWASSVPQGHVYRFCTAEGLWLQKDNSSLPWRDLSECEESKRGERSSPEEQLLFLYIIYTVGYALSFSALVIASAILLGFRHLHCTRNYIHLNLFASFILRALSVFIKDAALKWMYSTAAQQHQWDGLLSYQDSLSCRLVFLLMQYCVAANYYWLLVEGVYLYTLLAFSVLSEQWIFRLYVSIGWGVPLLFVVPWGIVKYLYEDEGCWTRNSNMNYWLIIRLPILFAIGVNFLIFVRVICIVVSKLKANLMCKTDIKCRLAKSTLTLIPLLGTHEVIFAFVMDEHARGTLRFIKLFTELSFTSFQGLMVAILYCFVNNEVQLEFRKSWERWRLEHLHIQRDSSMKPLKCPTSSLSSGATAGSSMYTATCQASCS
Protocol for human GLP-1R: HEK293 cells were infected with lentivirus encoding firefly luciferase gene under the control of cAMP responsive element (CRE) promoter (Qiagen, The Netherlands) and then were selected using 1 μg mL^−1 puromycin (Life Technologies, Carlsbad) for 1 week. The surviving cells (referred to as CRE-HEK293) were expanded and then transfected with a G418 selective mammalian expression plasmid encoding human GLP-1R or GIPR. In brief, GLP-1R or GIPR plasmid was transfected into CRE-HEK293 cells using Lipofectamine 2000 and selected with 400 μg mL^−1 Geneticin (Life Technologies, Carlsbad, CA). Single colony stable cell line overexpressing CRE-luciferase and GLP-1R or GIPR (HEK293-GLP-1R-CRE or HEK293-GIPR-CRE) was then established for in vitro activity assay.
The EC50 of each peptide was determined using GraphPad Prism 6 software (GraphPad, San Diego, CA).
HEK293 cells were infected with lentivirus encoding firefly luciferase gene under the control of cAMP responsive element (CRE) promoter (Qiagen, The Netherlands) and then were selected using 1 μg/mL puromycin (Life Technologies, Carlsbad) for 1 week. The surviving cells (referred to as CRE-HEK293) were expanded and then transfected with a G418 selective mammalian expression plasmid encoding human GLP-1R. In brief, GLP-1R plasmid was transfected into CRE-HEK293 cells using Lipofectamine 2000 and selected with 400 μg/mL Geneticin (Life Technologies, Carlsbad, CA). Single colony stable cell line overexpressing CRE-luciferase and GLP1R was then established for in vitro activity assay.

With `CCCC[C@@H]1NC(=O)[C@H](C)NC(=O)[C@H](C)NC(=O)[C@H](CCC(N)=O)NC(=O)[C@H](CCCCN)NC(=O)[C@H](CC(=O)O)NC(=O)[C@@H](NC(=O)[C@H](Cc2ccc(O)cc2)NC(=O)[C@@H](NC(=O)[C@H](CC(=O)O)NC(=O)[C@H](Cc2ccc(O)cc2)NC(=O)[C@H](CC(=O)O)NC(=O)[C@H](CO)NC(=O)[C@H](Cc2c[nH]cn2)NC(=O)[C@H](Cc2ccccc2)NC(=O)[C@@H](NC(=O)CNC(=O)[C@H](CCC(=O)O)NC(=O)C(C)(C)NC(=O)[C@@H](N)Cc2ccc(O)cc2)[C@@H](C)O)[C@@H](C)CC)CCCCNC(=O)CN(C(=O)CCNC(=O)CCOCCOCCNC(=O)CCOCCOCCNC(=O)CC[C@H](NC(=O)CCCCCCCCCCCCCCCCC(=O)O)C(=O)O)CC(=O)NCCCC[C@@H](C(=O)N[C@@H](Cc2ccccc2)C(=O)N[C@H](C(=O)N[C@@H](C)C(=O)N[C@@H](Cc2c[nH]c3ccccc23)C(=O)N[C@@H](CC(C)C)C(=O)N[C@@H](CC(C)C)C(=O)N[C@@H](C)C(=O)NCC(=O)NCC(=O)N2CCC[C@H]2C(=O)N[C@@H](CO)C(=O)N[C@@H](CO)C(=O)NCC(=O)N[C@@H](C)C(=O)N2CCC[C@H]2C(=O)N2CCC[C@H]2C(=O)N2CCC[C@H]2C(=O)N[C@@H](CO)C(N)=O)C(C)C)NC1=O` [ZA-42 - K5, YAibEGT-FHSDY-DIYXD-KQAANle-XFVAW-LLAGG-PSSGA-PPPS-NH2 (where each X is K) (SEQ ID NO: 47)], the EC50 at human GLP-1R (Table 7, read-out: EC50 GLP1R) was approximately 13700 nM.

As to `CC[C@H](C)[C@H](NC(=O)[C@H](CO)NC(=O)[C@H](Cc1ccc(O)cc1)NC(=O)[C@H](CC(=O)O)NC(=O)[C@H](CO)NC(=O)[C@@H](NC(=O)[C@H](Cc1ccccc1)NC(=O)[C@@H](NC(=O)CNC(=O)[C@H](CCC(=O)O)NC(=O)C(C)(C)NC(=O)[C@@H](N)Cc1ccc(O)cc1)[C@@H](C)O)[C@@H](C)O)C(=O)N[C@@H](Cc1ccc(O)cc1)C(=O)N[C@H]1CCCCNC(=O)CN(C(=O)CCNC(=O)CCOCCOCCNC(=O)CCOCCOCCNC(=O)CC[C@H](NC(=O)CCCCCCCCCCCCCCCCC(=O)O)C(=O)O)CC(=O)NCCCC[C@@H](C(=O)N[C@@H](Cc2ccccc2)C(=O)N[C@H](C(=O)N[C@@H](CC(N)=O)C(=O)N[C@@H](Cc2c[nH]c3ccccc23)C(=O)N[C@@H](CC(C)C)C(=O)N[C@@H](CC(C)C)C(=O)N[C@@H](C)C(=O)NCC(=O)NCC(=O)N2CCC[C@H]2C(=O)N[C@@H](CO)C(=O)N[C@@H](CO)C(=O)NCC(=O)N[C@@H](C)C(=O)N2CCC[C@H]2C(=O)N2CCC[C@H]2C(=O)N2CCC[C@H]2C(=O)N[C@@H](CO)C(N)=O)C(C)C)NC(=O)C(C)(C)NC(=O)[C@H](C)NC(=O)[C@H](C)NC(=O)[C@H](CCC(N)=O)NC(=O)[C@H](CCCCN)NC(=O)[C@H](CC(=O)O)NC1=O` [mCLZ715, YAibEGT-FTSDY-SIYXD-KQAAAib-XFVNW-LLAGG-PSSGA-PPPS-NH2 (where each X is K) (SEQ ID NO: 40)], in data set [1], the fasted glucose levels result is given as “significantly reduce fasted glucose levels” and the “glucose handling (OGTT) versus vehicle” value is “more significant improvements in handling glucose”.

Molecule `CC[C@H](C)[C@H](NC(=O)[C@H](CC(C)C)NC(=O)[C@H](Cc1c[nH]c2ccccc12)NC(=O)[C@H](CC(N)=O)NC(=O)[C@@H](NC(=O)[C@H](Cc1ccccc1)NC(=O)[C@@H]1CSCC(=O)NCCN(C(=O)CCC(=O)NCCOCCOCCC(=O)NCCOCCOCCC(=O)NCCCC[C@H](NC(=O)CCCCCCCCCCCCCCCCCCC(=O)O)C(=O)O)CCNC(=O)CSC[C@H](NC(=O)[C@H](Cc2ccc(O)cc2)NC(=O)[C@@H](NC(=O)[C@H](CO)NC(=O)[C@H](Cc2ccc(O)cc2)NC(=O)[C@H](CC(=O)O)NC(=O)[C@H](CO)NC(=O)[C@@H](NC(=O)[C@H](Cc2ccccc2)NC(=O)[C@@H](NC(=O)CNC(=O)[C@H](CCC(=O)O)NC(=O)C(C)(C)NC(=O)[C@@H](N)Cc2ccc(O)cc2)[C@@H](C)O)[C@@H](C)O)[C@@H](C)CC)C(=O)N[C@@H](CC(=O)O)C(=O)N[C@@H](CCCCN)C(=O)N[C@@H](CCC(N)=O)C(=O)N[C@@H](C)C(=O)N[C@@H](C)C(=O)NC(C)(C)C(=O)N1)C(C)C)C(=O)N[C@@H](C)C(=O)NCC(=O)NCC(=O)N1CCC[C@H]1C(=O)N[C@@H](CO)C(=O)N[C@@H](CO)C(=O)NCC(=O)N[C@@H](C)C(=O)N1CCC[C@H]1C(=O)N1CCC[C@H]1C(=O)N1CCC[C@H]1C(=O)N[C@@H](CO)C(N)=O` [mCMV266, YAibEGT-FTSDY-SIYXD-KQAAAib-XFVNW-LIAGG-PSSGA-PPPS-NH2 (where each X is C) (SEQ ID NO: 52)] had a bioavailability in data set [2] (CD-1, mouse, in vivo, sc, 1 mg/kg) of 63%. Moreover, in data set [2] (Table 14, SC 1 mg/kg), the Cl is 4.02 mL/h/kg. Also, the Vd in data set [2] (Table 14, SC 1 mg/kg) amounted to 0.063 L/kg; in data set [2] (mouse, in vivo, iv, 1 mg/kg) it was 0.043 L/kg. Also, the AUC(0-inf) in data set [2] (mouse, in vivo, iv, 1 mg/kg) is 397 µg·h/mL; in data set [2] (mouse, in vivo, sc, 1 mg/kg), 252 µg·h/mL. The Cmax in data set [2] (mouse, in vivo, iv, 1 mg/kg) amounted to 30400 ng/mL; in data set [2] (mouse, in vivo, sc, 1 mg/kg), 6610 ng/mL. Further, the MRT last came to 18.6 h in data set [2] (mouse, in vivo, iv, 1 mg/kg) and 24.3 h in data set [2] (mouse, in vivo, sc, 1 mg/kg). Moreover, the Tmax in data set [2] (mouse, in vivo, iv, 1 mg/kg) was 0.5 h; in data set [2] (mouse, in vivo, sc, 1 mg/kg), 12.7 h. Also, in data set [2] (mouse, in vivo, iv, 1 mg/kg), the clearance was found to be 2.58 mL/h/kg. In addition, the half-life in data set [2] (mouse, in vivo, iv, 1 mg/kg) was 11.5 h; in data set [2] (mouse, in vivo, sc, 1 mg/kg), 10.7 h. Further, the AUC(0-t) in data set [2] (mouse, in vivo, iv, 1 mg/kg, AUC0-24, Table 14, IV 1 mg/kg) is 269 µg·h/mL; in data set [2] (mouse, in vivo, iv, 1 mg/kg, AUCLAST, Table 14, IV 1 mg/kg), 390 µg·h/mL; in data set [2] (mouse, in vivo, sc, 1 mg/kg, AUC0-24, Table 14, SC 1 mg/kg), 135 µg·h/mL; in data set [2] (mouse, in vivo, sc, 1 mg/kg, AUCLAST, Table 14, SC 1 mg/kg), 247 µg·h/mL. Besides, the EC50 was 0.03 nM at human GLP-1R (EC50 GLP1R 02/19, unnumbered table, run 02/19); 0.05 nM on human GLP-1R (EC50 GLP1R 3/25, unnumbered table, run 3/25); 0.06 nM at human GLP-1R (EC50 GLP1R 03/26, unnumbered table, run 03/26); 0.05 nM on human GLP-1R (EC50 GLP1R, Table 8); 0.05 nM at human GLP-1R (unnumbered table, average of runs, read-out: EC50 GLP1R average); 0.08 nM on human GIPR (EC50 GIPR 02/19, unnumbered table, run 02/19). Besides, the EC50 was determined as 0.06 nM at human GIPR (EC50 GIPR 03/25, unnumbered table, run 03/25); 0.06 nM on human GIPR (EC50 GIPR 03/26, unnumbered table, run 03/26); 0.07 nM on human GIPR (EC50 GIPR, Table 8); 0.07 nM on human GIPR (unnumbered table, average of runs, read-out: EC50 GIPR average).

Semaglutide [reference compound]: in data set [1], the “glucose handling (OGTT) versus vehicle” value is on record as “did not exhibit any improvement over the vehicle”. The “effects on glucose tolerance” value in data set [3] was “indistinguishable effects on glucose tolerance”.
